Experimental data from US12123876B2, “Antibody binding to HEG1 and use of the antibody for detection and treatment of mesothelioma” (Kanagawa Prefectural Hospital Organization, priority 2016, dated 2024).
Entries after “also recorded” stand apart in the source; their conditions may differ.

Tested on: HEG1 protein (purified from ACC-MESO4 or recombinant soluble HEG1)
Assay: Western blot / dot blot reactivity of antibodies with HEG1 protein
Type: binding, human
Experimental: A massive amount of ACC-MESO4 was cultured, and purification of an antigen from the cell lysate was performed. Cells from 240 10-cm dishes were solubilized with 50 mM Tris buffer (pH 8.0) containing 1% TRITON™ X-100 (detergent), 1% CHAPS, 1 mM EDTA, 50 mM NaCl, and protease inhibitor (Complete, Roche Life Science), and then centrifuged. The resulting supernatant was dialyzed with 20 mM acetate buffer (pH 5.0) at 4° C. for 18 hours to afford an acidic precipitate. The precipitate was extracted with 20 mM Tris buffer (pH 7.2) containing 0.1% TWEEN® 20 (polyethylene glycol sorbitan monolaurate, polyoxyethylenesorbitan monolaurate) and 150 mM NaCl and centrifuged, and the resulting supernatant was concentrated by using an Amicon Ultra-15, 100 kDa (Merck Millipore) and subjected to solution exchange with 20 mM Tris buffer (pH 8.0) containing 6 M guanidine hydrochloride. To the concentrated solution, tris(2-carboxyethyl)phosphine hydrochloride with a final concentration of 10 mM was added, and the resultant was heated at 60° C. for 30 minutes, and iodoacetamide with a final concentration of 40 mM was then added thereto, and reacted at room temperature for 3 hours. The reaction solution was subjected to gel filtration chromatography (SUPEROSE® 6 INCREASE (prepacked column) 10/300 GL (GE Healthcare)) in 20 mM Tris buffer (pH 8.0) containing 6 M guanidine hydrochloride and 0.05% TWEEN® 20 (polyethylene glycol sorbitan monolaurate, polyoxyethylenesorbitan monolaurate), and fractions positive for dot blot were collected. The sample was dialyzed with 25 mM phosphate buffer (pH 7.0) containing 4 M urea and 0.05% TWEEN® 20 (polyethylene glycol sorbitan monolaurate, polyoxyethylenesorbitan monolaurate) at room temperature overnight, and applied to a Mono Q 5/50 GL (GE Healthcare). The column was washed with 25 mM phosphate buffer (pH 7.0) containing 4 M urea and 0.05% TWEEN® 20 (polyethylene glycol sorbitan monolaurate, polyoxyethylenesorbitan monolaurate), and thereafter elution was performed with an NaCl salt concentration gradient of 0 to 1 M. Fractions strongly positive for dot blot were collected, and dialyzed with 25 mM phosphate buffer (pH 7.2) containing 150 mM NaCl and 0.05% TWEEN® 20 (polyethylene glycol sorbitan monolaurate, polyoxyethylenesorbitan monolaurate) at room temperature overnight, and applied to 1 mL of WGA-SEPHAROSE® (wheat germ agglutinin-crosslinked, beaded-form of agarose) (J-OIL MILLS, Inc.). After washing with buffer, elution was performed with 25 mM phosphate buffer (pH 7.2) containing 0.2 M N-acetylglucosamine, 150 mM NaCl, and 0.05% TWEEN® 20 (polyethylene glycol sorbitan monolaurate, polyoxyethylenesorbitan monolaurate), and the eluent was concentrated with a Centricon (YM-30) (Millipore). Gel filtration chromatography (SUPEROSE® 6 INCREASE (prepacked column) 10/300 GL (GE Healthcare)) was performed in 25 mM phosphate buffer (pH 7.2) containing 3 M GdnHCI and 0.5% CHAPS, and fractions strongly positive for dot blot were dialyzed with 20 mM NH4HCO3 containing 0.5% CHAPS at room temperature overnight to afford a purified antigen.
The dot blot was performed as follows. A PVDF membrane (Immobilon-P, Merck Millipore) was soaked in methanol, and then washed and impregnated with pure water. The hydrophilized PVDF membrane was placed on a filter paper containing water to avoid air inclusion, removed of excessive moisture, and soaked with 1 to 5 μL of the sample in dots fed by a micropipette. After the membrane was dried at room temperature overnight, the membrane was hydrophilized again with methanol and pure water, and blocked with 20 mM Tris buffer (pH 7.4) containing 5% skim milk, 0.1% TWEEN® 20 (polyethylene glycol sorbitan monolaurate, polyoxyethylenesorbitan monolaurate), and 150 mM NaCl (blocking buffer) at room temperature for 1 hour. […]

B1: SKM9-2 antibody: mouse monoclonal IgG1 kappa antibody binding glycosylated HEG1; heavy chain SEQ ID NO: 2, light chain SEQ ID NO: 4 (antibody, listed as Mus musculus)
heavy: MGWSSIILFLVATTTGVHSQVQLQQPGAELVRPGASVKLSCKASGFSFTTYWITWVKQRPGQGLEWIGMIHPSDSETRLSQTFKDKATLTVDKSSNTAYMQFSSPTSEDSAVYYCVRDFDVWGAGTTVTVSSAKTTPPSVYPLAPGSAAQTNSMVTLGCLVKGYFPEPVTVTWNSGSLSSGVHTFPAVLQSDLYTLSSSVTVPSSTWPSETVTCNVAHPASSTKVDKKIVPRDCGCKPCICTVPEVSSVFIFPPKPKDVLTITLTPKVTCVVVDISKDDPEVQFSWFVDDVEVHTAQTQPREEQFNSTFRSVSELPIMHQDWLNGKEFKCRVNSAAFPAPIEKTISKTKGRPKAPQVYTIPPPKEQMAKDKVSLTCMITDFFPEDITVEWQWNGQPAENYKNTQPIMDTDGSYFVYSKLNVQKSNWEAGNTFTCSVLHEGLHNHHTEKSLSHSPGK
light: MKLPVRLLVLMFWIPASISDVLMTQTPLSLPVSLGDQASISCRSSQNIVHNNGNTYLGWYLQKPGQSPKLLIFKVSNRFSGVPDRFSGSGSGTDFTLKISRVEAEDLGVYYCFQGSHIPRTFGGGTRLEIKRADAAPTVSIFPPSSEQLTSGGASVVCFLNNFYPKDINVKWKIDGSERQNGVLNSWTDQDSKDSTYSMSSTLTLTKDEYERHNSYTCEATHKTSTSPIVKSFNRNEC
- Recognition of purified antigen band at approximately 400 kDa (Western blotting, antigen purified from ACC-MESO4): recognized
- Reactivity with antigen after N-glycanase (PNGase F) treatment (dot blot): did not cause the antibody to lose the reactivity
- Reactivity with antigen after Proteinase K treatment (dot blot): caused the antibody to lose the reactivity
- Reactivity with antigen treated with neuraminidase (dot blot, HEG1 protein purified from ACC-MESO4, neuraminidase treatment): did not bind; also recorded: weakened
